In article PMC3636079, “Determinants at the N- and C-termini of Gα12 required for activation of Rho-mediated signaling” (Journal of Molecular Signaling, 2013):

Legend:
[1] = molecular target: T1, GST fusion of amino acids 320-606 of LARG (GST-LARG-RH) (UniProt Q9NZN5 320-606); assay: pull-down; GST fusion (or GST alone) immobilised on glutathione-sepharose; HEK293 detergent-soluble extract diluted to 0.05% polyoxyethylene-10-lauryl ether in 50 mM HEPES pH 7.5, 1 mM EDTA, 3 mM dithiothreitol, 10 mM MgSO4; about 2 h at 4°C; three washes; immunoblot with anti-Gα12 or anti-myc; band intensities given as pulldown:load ratio; settings: one partner purified
T1 construct: leukemia-associated RhoGEF (LARG), RGS-homology (RH) domain, amino acids 320-606; plasmid provided by Tohru Kozasa
T1 sequence (looked up): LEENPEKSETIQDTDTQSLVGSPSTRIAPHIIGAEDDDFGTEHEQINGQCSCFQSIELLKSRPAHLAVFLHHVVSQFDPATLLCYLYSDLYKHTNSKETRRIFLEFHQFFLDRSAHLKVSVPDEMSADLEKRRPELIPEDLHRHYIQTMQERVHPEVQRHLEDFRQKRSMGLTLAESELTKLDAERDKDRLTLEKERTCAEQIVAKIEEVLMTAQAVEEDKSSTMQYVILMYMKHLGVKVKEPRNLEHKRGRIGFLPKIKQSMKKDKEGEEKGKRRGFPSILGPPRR

[2] = molecular target: T2, GST fusion of amino acids 1-252 of p115RhoGEF (GST-p115-RH) (UniProt Q92888 1-252); assay: as above; settings: one partner purified
T2 construct: p115RhoGEF, N-terminal 252 amino acids holding the RH domain; subcloned by PCR from a plasmid with an N-terminal myc tag on p115RhoGEF 1-252; also called RGS
T2 sequence (looked up): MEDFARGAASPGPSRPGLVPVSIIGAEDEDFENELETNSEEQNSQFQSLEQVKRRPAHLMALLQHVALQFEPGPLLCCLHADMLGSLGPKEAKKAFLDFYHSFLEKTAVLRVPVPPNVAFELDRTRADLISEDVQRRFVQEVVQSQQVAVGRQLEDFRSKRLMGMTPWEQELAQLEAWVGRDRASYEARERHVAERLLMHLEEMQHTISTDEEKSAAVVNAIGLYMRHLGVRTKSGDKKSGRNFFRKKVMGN

pulldown:load ratio, percent of myc-Gα12^QL [1]: ~18% | pulldown:load ratio, percent of myc-Gα12^QL [2]: ~86%
B1: myc-Gα12^QL Glu^31/33Arg (natural protein, UniProt P27600 1-379, looked up)
chain: MSGVVRTLSRCLLPAEAGARERRAGAARDARRRARRRSRDIDALLARERRAVRRLVKILLLGAGESGKSTFLKQMRIIHGREFDQKALLEFRDTIFDNILKGSRVLVDARDKLGIPWQHSENEKHGMFLMAFENKAGLPVEPATFQLYVPALSALWRDSGIREAFSRRSEFQLGESVKYFLDNLDRIGQLNYFPSKQDILLARKATKGIVEHDFVIKKIPFKMVDVGGLRSQRQKWFQCFDGITSILFMVSSSEYDQVLMEDRRTNRLVESMNIFETIVNNKLFFNVSIILFLNKMDLLVEKVKSVSIKKHFPDFKGDPHRLEDVQRYLVQCFDRKRRNRSKPLFHHFTTAIDTENIRFVFHAVKDTILQENLKDIMLQ
notes: Gα12 with Q229L and Glu31 and Glu33 changed to Arg; also called double charge substitution mutant; source: HEK293, transfected, in detergent-soluble extract
